Results as given in patent US20140315215A1 (SECRETARY OF STATE FOR HEALTH, published 2014).

Target: T1, hen egg lysozyme (hen, UniProt P00698 19-147)
T1 construct: Antigen immobilised on the microtitre plate in all ELISAs; also called HEL
Test: ELISA on immobilised HEL, tAK activity read-out; fusion extracted with glutathione and heat treated, compared with the BSA control
Description: FIG. 1 illustrates functional recovery of correctly folded single-domain antibody (VNAR) in the presence of the Sac tAK domain and glutathione. The fusion proteins were assessed for their ability to bind to hen egg lysozyme immobilized onto a microtitre plate in an ELISA format, using the tAK activity as the assay read-out. In each case background binding was measured using BSA as a non-relevant antigen control. In the case of Tma tAK fusions, no significant increase in binding was observed above the background binding to BSA with either glutathione extraction, heat treatment or a combination of the two.

T1 sequence (P00698 19-147): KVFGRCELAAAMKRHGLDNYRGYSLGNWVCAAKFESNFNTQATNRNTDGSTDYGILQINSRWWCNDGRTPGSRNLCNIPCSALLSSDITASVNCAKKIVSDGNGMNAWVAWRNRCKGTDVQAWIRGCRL

B1: SacAK-F3-VNAR fusion protein (Sulfolobus acidocaldarius adenylate kinase, [GGGGS]3 flexible linker F3, hen egg lysozyme specific shark VNAR) (VNAR)
chain: MLATALKLGYAKDRDEMRKLSVEKQKKLQIDAAKGIAEEARAGGEGYLFIDTHAVIRTPSGYLPGLPSYVITEINPSVIFLLEADPKIILSRQKRDTTRNRNDYSDESVILETINFARYAATASAVLAGSTVKVIVNVEGDPSIAANEIIRSMKQSTGGGGSGGGGSGGGGSGSARVDQTPRSVTKETGESLTINCVLRDASYALGSTCWYRKKSGSTNEESISKGGRYVETVNSGSKSFSLRINDLTVEDGGTYRCGLGVAGGYCDYALCSSRYAECGDGTAVTVN
notes: also called Sac tAK fusions; the fusion
- fold increase in binding: ~10 fold
